For this test, the target named is soluble semaphorin 4D. In words: SPR; surface plasmon resonance imaging (SPRi) of TPs and sSema4D; who was immobilised and the conditions are not told in the main text. The following applies: both partners purified. A general note: In SPR one partner is held on a chip, and binding of the other changes the refractive index at the surface.
soluble semaphorin 4D, sequence (chain, as listed by the source): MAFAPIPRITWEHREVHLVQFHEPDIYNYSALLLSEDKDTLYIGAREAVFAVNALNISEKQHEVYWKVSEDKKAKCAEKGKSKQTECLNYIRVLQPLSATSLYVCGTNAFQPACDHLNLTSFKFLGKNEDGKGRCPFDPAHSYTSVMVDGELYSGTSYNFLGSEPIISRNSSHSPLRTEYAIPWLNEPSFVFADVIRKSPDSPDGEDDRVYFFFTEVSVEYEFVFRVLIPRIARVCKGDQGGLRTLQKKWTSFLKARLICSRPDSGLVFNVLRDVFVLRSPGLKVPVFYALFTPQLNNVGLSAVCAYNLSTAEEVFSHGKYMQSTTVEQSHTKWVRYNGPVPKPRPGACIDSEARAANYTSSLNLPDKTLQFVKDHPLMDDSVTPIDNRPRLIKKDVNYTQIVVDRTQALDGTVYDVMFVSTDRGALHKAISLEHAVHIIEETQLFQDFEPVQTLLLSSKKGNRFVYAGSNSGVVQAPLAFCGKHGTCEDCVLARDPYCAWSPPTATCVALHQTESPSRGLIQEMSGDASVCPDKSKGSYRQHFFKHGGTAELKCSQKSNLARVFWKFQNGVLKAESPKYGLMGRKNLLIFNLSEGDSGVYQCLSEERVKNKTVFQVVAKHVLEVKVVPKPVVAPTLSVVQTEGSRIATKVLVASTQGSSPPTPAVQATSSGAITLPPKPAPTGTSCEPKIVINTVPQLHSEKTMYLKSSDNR

B1: TP-7 (peptide)
chain: KNKAAKG
modifications: Limits taken by convention as the full extracellular domain after the signal peptide. Species is not printed for the assayed protein; human is assumed, mouse O09126 24-733 is the alternative. Natural
The Kd is the free concentration of one partner at which half of the binding sites on the other are occupied at equilibrium, for simple one-to-one binding. Read a high Kd as a looser complex. For the molecule B1, the Kd came out at 14.6 nM.

B2: TP-2 (peptide)
chain: KQKRPRH
modifications: Limits taken by convention as the full extracellular domain after the signal peptide. Species is not printed for the assayed protein; human is assumed, mouse O09126 24-733 is the alternative. Natural
Consider B2, for which the Kd turned out to be 41.7 nM.
